These results are taken from paper PMC3874162 (Nucleic Acids Research, 2013).

Where a chain is given by its changes, count along the chain named.

What all share (experiment): EMSA
A general note: Mobility shift assays separate free from complexed probe on a gel.

One data set deals with T1, Cdc13-K622A (Saccharomyces cerevisiae, UniProt P32797 1-924, K622A).
T1 sequence: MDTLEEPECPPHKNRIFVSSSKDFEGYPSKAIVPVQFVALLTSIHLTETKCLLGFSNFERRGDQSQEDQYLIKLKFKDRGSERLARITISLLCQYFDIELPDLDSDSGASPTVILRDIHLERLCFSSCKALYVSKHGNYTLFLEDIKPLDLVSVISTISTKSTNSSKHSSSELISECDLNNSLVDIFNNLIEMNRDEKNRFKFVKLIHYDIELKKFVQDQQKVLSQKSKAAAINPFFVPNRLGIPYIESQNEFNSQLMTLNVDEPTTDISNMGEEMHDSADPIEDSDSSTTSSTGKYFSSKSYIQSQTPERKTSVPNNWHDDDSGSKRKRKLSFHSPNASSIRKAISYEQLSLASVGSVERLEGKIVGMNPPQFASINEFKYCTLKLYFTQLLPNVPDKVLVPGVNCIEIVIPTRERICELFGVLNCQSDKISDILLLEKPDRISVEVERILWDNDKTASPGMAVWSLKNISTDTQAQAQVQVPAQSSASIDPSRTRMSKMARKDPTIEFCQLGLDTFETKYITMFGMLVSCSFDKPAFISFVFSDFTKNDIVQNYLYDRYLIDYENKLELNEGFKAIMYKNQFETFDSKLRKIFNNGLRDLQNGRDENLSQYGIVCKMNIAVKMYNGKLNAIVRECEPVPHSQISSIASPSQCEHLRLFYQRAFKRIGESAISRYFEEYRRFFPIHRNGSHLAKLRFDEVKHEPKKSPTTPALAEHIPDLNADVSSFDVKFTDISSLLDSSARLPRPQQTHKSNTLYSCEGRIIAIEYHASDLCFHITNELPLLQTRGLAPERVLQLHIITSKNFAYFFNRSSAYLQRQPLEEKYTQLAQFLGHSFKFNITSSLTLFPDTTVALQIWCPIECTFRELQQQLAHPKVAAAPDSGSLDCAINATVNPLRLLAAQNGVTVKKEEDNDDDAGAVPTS

The target in a further data set is T2, Cdc13-MOB-DBD (Saccharomyces cerevisiae, UniProt P32797 344-694).
T2 sequence: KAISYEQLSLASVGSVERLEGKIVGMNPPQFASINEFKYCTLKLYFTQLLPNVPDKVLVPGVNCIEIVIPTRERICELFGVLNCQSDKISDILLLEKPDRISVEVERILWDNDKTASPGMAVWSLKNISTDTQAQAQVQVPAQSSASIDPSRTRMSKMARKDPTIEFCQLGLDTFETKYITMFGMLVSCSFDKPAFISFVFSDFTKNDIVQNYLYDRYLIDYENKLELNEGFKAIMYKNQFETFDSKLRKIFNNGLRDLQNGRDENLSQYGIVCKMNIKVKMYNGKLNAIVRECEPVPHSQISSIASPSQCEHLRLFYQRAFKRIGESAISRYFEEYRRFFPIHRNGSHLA

The next data set addresses T3, Cdc13-Y561A (Saccharomyces cerevisiae, UniProt P32797 1-924, Y561A).
T3 sequence: T1 sequence with Y561A, A622K

As to GTGTGGGTGTG (ssDNA) [Tel11], the Kd with Cdc13-K622A was determined as 50 ± 3 pM; with Cdc13-MOB-DBD it was 2.3 ± 0.2 pM; with Cdc13-Y561A it was 17 ± 1 pM.

Broadly, the Kd is the concentration at which binding is half-saturated.
